# T1: human IL-23R (human, UniProt Q5VWK5 24-629)
# T1 sequence: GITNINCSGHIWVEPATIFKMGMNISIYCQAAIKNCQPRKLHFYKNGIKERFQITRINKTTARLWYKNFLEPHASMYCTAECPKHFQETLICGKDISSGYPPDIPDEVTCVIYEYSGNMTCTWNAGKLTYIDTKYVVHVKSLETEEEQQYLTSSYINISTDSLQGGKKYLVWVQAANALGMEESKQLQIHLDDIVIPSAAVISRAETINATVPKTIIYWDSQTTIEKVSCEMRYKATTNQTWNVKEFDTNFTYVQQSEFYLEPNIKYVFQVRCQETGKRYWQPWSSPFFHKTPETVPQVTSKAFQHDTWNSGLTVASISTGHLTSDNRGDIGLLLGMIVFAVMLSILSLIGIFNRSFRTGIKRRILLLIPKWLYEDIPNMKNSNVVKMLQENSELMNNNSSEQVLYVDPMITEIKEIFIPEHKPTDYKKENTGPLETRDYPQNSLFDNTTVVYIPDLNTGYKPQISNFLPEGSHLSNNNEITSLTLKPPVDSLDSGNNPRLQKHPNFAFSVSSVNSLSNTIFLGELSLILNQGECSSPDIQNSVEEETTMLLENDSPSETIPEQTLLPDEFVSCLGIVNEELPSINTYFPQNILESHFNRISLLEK
# T2: human IL-23R-mouse Fc fusion protein (human; mouse, UniProt Q5VWK5 24-353)
# T2 construct: Expressed in FreeStyle 293 cells, purified; immobilized on the ELISA plate at 500 ng/mL; also called human IL-23R-Fc fusion protein; not shown: Fc region of mouse immunoglobulin (IgG2a) as encoded by the vector pFUSE-mIgG2A-Fc2 (InvivoGen); limits and any linker r
# T2 sequence: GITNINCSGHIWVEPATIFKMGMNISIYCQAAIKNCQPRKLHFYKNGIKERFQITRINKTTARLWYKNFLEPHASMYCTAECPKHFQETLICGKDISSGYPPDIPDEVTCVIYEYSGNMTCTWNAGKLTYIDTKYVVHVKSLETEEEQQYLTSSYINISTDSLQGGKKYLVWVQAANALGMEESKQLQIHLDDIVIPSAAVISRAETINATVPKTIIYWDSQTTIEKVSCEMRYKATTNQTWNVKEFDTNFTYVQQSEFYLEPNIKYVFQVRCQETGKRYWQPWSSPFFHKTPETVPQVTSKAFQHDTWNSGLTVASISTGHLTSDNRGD
# Columns and labels:
# human IL-23R [1] = target: T1, human IL-23R; test: cell-based or functional assay
# human IL-23R [2] = target: T1, human IL-23R; test: cell-based or functional assay; remark: listed apart in the source
# [3] = target: T2, human IL-23R-mouse Fc fusion protein; test: antigen ELISA, human IL-23R-Fc immobilized, HRP anti-human IgG, chemiluminescence
# Protocol: (§1) The present inventors used an antigen ELISA to measure the antigen-specific binding activities of the fully human antibodies constructed in Example 6. A human or monkey IL-23R-Fc fusion protein was immobilized onto a Maxisorp 384-well plate (Nunc, Inc.) at a concentration of 500 ng/mL. A blocking agent (Blocking One; Nacalai Tesque, Inc.) was added thereto and allowed to stand at room temperature for 1 hour, followed by washing twice with a wash buffer [TPBS: 0.05% Tween-20-containing phosphate buffered saline (PBS)], and each of the purified antibody samples was suitably serially diluted and added thereto. Incubation was performed at room temperature for 1 hour, followed by washing four times with TPBS, and HRP-labeled anti-human IgG antibody (DAKO) which was 2000-fold diluted with dilution buffer was added as secondary antibody. Incubation was performed at room temperature for 1 hour, followed by washing four times with a washing buffer. A BM-chemiluminescence ELISA substrate (POD) (Roche Diagnostics) that is a reagent for detecting chemiluminescence was added thereto and the amount of chemiluminescence was measured with an EnVision counter (Perkin Elmer). Each of the antibodies was tested in duplicate, and the EC 50 was analyzed by curve fitting.
# [4] = target: T3, monkey IL-23R-mouse Fc fusion protein (monkey; mouse); test: antigen ELISA, monkey IL-23R-Fc immobilized, HRP anti-human IgG, chemiluminescence
# T3 construct: extracellular domain; also called monkey IL-23R-Fc fusion protein
# Protocol: as §1
# [5] = target: T2, human IL-23R-mouse Fc fusion protein; test: antigen ELISA, human IL-23R-Fc immobilized, HRP anti-mouse Ig, chemiluminescence
# Protocol: (§2) The present inventors used an antigen ELISA to measure the antigen-specific binding activity of the antibody. The human or monkey IL-23R-Fc fusion protein was immobilized onto a Maxisorp 384-well plate (Nunc, Inc.) at a concentration of 500 ng/mL. A blocking agent (Blocking One; Nacalai Tesque, Inc.) was added thereto and allowed to stand at room temperature for 1 hour, followed by washing twice with a wash buffer [TPBS: a phosphate buffered saline (PBS) containing 0.05% Tween-20], and the purified antibody samples were suitably serially diluted and added thereto. Incubation was performed at room temperature for 1 hour, followed by washing four times with TPBS, and HRP-rabbit anti-mouse Ig antibody (DAKO) which was 2000-fold diluted with a dilution buffer was added. Incubation was performed at room temperature for 1 hour, followed by washing four times with a wash buffer. A BM-chemiluminescence ELISA substrate (POD) (Roche Diagnostics), which is a reagent for detecting chemical luminescence, was added, and the amount of chemiluminescence was measured with an EnVision counter (Perkin Elmer). Each antibody was tested in duplicate and the EC50 was analyzed by curve fitting. In this test, a fusion antibody obtained by replacing the Fc region of the known humanized anti-human IL-23R antibody hum20D7 (patent document 1) with the mouse Fc region (hereinafter referred to as hum20D7-mFc) was used as a comparative antibody. Also, the reason why the hum20D7 was fused with the mouse Fc region to prepare a fusion protein was to use anti-mouse Ig antibody as secondary antibody, and the mouse Fc region could be recognized by the anti-mouse Ig antibody, thereby rendering it possible to measure activity.
# [6] = target: T3, monkey IL-23R-mouse Fc fusion protein; test: antigen ELISA, monkey IL-23R-Fc immobilized, HRP anti-mouse Ig, chemiluminescence
# Protocol: as §2
Binder,"IC50, inhibition of human IL-23-inducible Kit-225 cell proliferation (human IL-23R [1])","IC50, IL-23-stimulated STAT3 phosphorylation in CD4 lymphocytes of human whole blood (human IL-23R [2])",EC50 [3],EC50 [4],EC50 [5],EC50 [6]
"fully human antibody 25-3 (antibody, human IgG1, kappa, V domains shown, Human Ig gamma1 / human kappa constant regions; also called 25-3 (fully human); fully human 25-3 antibody) VH: QVQLQESGPGQVKPSQTLSLTCSVSGGSIDSGDHYWTWIRQHPGEVLEWIGYIYSSGHTYYSPSLKSRLTMSLDTSKNQFSLRLSSVTAADTAVYYCARVGDYEWFDTWGQGTLVTVSS VL: DIVMTQSPDSLAVSLGERATINCKSSQTILYPSNNMNYLGWYQQRAGQSPRLLIYWASTRESGVPDRFSGSGSGTDFTLTISSLQAEDVAVYYCQQYYSSLPTFGQGTKVEIKR",0.0035 µg/mL,0.0007 µg/mL,0.0195 µg/mL,0.0112 µg/mL,,
"25-3 (chimeric) (antibody, V domains shown) VH: QVQLQESGPGQVKPSQTLSLTCSVSGGSIDSGDHYWTWIRQHPGEVLEWIGYIYSSGHTYYSPSLKSRLTMSLDTSKNQFSLRLSSVTAADTAVYYCARVGDYEWFDTWGQGTLVTVSS VL: DIVMTQSPDSLAVSLGERATINCKSSQTILYPSNNMNYLGWYQQRAGQSPRLLIYWASTRESGVPDRFSGSGSGTDFTLTISSLQAEDVAVYYCQQYYSSLPTFGQGTKVEIKR",,,,,0.021 µg/mL,0.028 µg/mL
"fully human antibody 30-15 (antibody, human IgG1, kappa, V domains shown, Human Ig gamma1 / human kappa constant regions; also called 30-15 (fully human); fully human 30-15 antibody) VH: QVQLVQSGAEVKKPGASMKVSCKVSGYTLNELSIHWVRQAPGKGLEWMGGFDPEHGETVYAQNFQDRVTLTEDTSTDTSYMGLNNLRSDDTAVYYCAAESYGDYEFWGQGTLVTVSS VL: DIQMTQSPSSVSASVGDRVTITCRASQGINNWLAWYQQKPGKAPKVLIYTASSLQSGVPSRFSGSGSGTDFTLTISSLQPEDFATYYCQQANSHPWTFGQGTKVEIKR",0.0014 µg/mL,0.013 µg/mL,0.0118 µg/mL,0.0076 µg/mL,,
"fully human antibody 30-16 (antibody, human IgG1, kappa, V domains shown, Human Ig gamma1 / human kappa constant regions; also called 30-16 (fully human); fully human 30-16 antibody) VH: QVQVVQSGAEVKKPGASVKVSCKVSGYTLIELAIHWVRQVPGKGLEWMGGFDPEHGETIYAQKFQGRVTMTEDTSTDTAYMELNNLRSEDTAVYYCAILEAGDLDCWGQGTLVTVSS VL: DIQMTQSPSSVSASVGDRVTITCRASQGISNWLAWYQQKPGKAPKVLIYTASSLQSGVPSRFSGSGSGTDFTLTVSGLQPEDFGTYYCQQANSFPFTFGPGTKVDIKR",0.0023 µg/mL,0.0045 µg/mL,0.0165 µg/mL,0.0108 µg/mL,,
"30-15 (chimeric) (antibody, V domains shown) VH: QVQLVQSGAEVKKPGASMKVSCKVSGYTLNELSIHWVRQAPGKGLEWMGGFDPEHGETVYAQNFQDRVTLTEDTSTDTSYMGLNNLRSDDTAVYYCAAESYGDYEFWGQGTLVTVSS VL: DIQMTQSPSSVSASVGDRVTITCRASQGINNWLAWYQQKPGKAPKVLIYTASSLQSGVPSRFSGSGSGTDFTLTISSLQPEDFATYYCQQANSHPWTFGQGTKVEIKR",,,,,0.017 µg/mL,0.016 µg/mL
"30-16 (chimeric) (antibody, V domains shown) VH: QVQVVQSGAEVKKPGASVKVSCKVSGYTLIELAIHWVRQVPGKGLEWMGGFDPEHGETIYAQKFQGRVTMTEDTSTDTAYMELNNLRSEDTAVYYCAILEAGDLDCWGQGTLVTVSS VL: DIQMTQSPSSVSASVGDRVTITCRASQGISNWLAWYQQKPGKAPKVLIYTASSLQSGVPSRFSGSGSGTDFTLTVSGLQPEDFGTYYCQQANSFPFTFGPGTKVDIKR",,,,,0.019 µg/mL,0.069 µg/mL
"fully human antibody 32-28 (antibody, human IgG1, kappa, V domains shown, Human Ig gamma1 / human kappa constant regions; also called 32-28 (fully human); fully human 32-28 antibody) VH: QVHLVQSGTEVRKPGASVKVSCKVSGYTLNELAIHWVRQAPGKGLEWMGGFDPEHGEIIYAQRFQGRVTLPEDTSTDTAYLDLFNLRSEDTAVYFCATEAAPFDYWGQGTLVIVSS VL: DIQMTQSPSTLSASVGDRVTITCRASQSLSSWLAWYQQKPGKAPKLLIYKASSLESGVPSRFSGSGSGTDFTLTISSLQPDDFATYYCQQYDIYPRTFGQGTKVEIKR",0.0014 µg/mL,0.00016 µg/mL,0.0131 µg/mL,0.0171 µg/mL,,
"32-28 (chimeric) (antibody, V domains shown) VH: QVHLVQSGTEVRKPGASVKVSCKVSGYTLNELAIHWVRQAPGKGLEWMGGFDPEHGEIIYAQRFQGRVTLPEDTSTDTAYLDLFNLRSEDTAVYFCATEAAPFDYWGQGTLVIVSS VL: DIQMTQSPSTLSASVGDRVTITCRASQSLSSWLAWYQQKPGKAPKLLIYKASSLESGVPSRFSGSGSGTDFTLTISSLQPDDFATYYCQQYDIYPRTFGQGTKVEIKR",,,,,0.018 µg/mL,0.024 µg/mL

# Results, then the binder that gave them:
"IC50, inhibition of human IL-23-inducible Kit-225 cell proliferation (human IL-23R [1])","IC50, IL-23-stimulated STAT3 phosphorylation in CD4 lymphocytes of human whole blood (human IL-23R [2])",EC50 [3],EC50 [4],EC50 [5],EC50 [6],Binder
0.0033 µg/mL,,0.0136 µg/mL,0.0084 µg/mL,,,"fully human antibody 30-18 (antibody, human IgG1, kappa, V domains shown, Human Ig gamma1 / human kappa constant regions; also called 30-18 (fully human); fully human 30-18 antibody) VH: QVQLVQSGAEVKKPGASVKVSCKVSGYTLNELSIHWVRQAPGKGLEWMGGFDPEHSETLYAQNFQDRLTLTEDTSTETACMELNSLRSDDTAVYYCAAESYGDYEFWGQGTLVTVSS VL: DIQMTQSPSSVSASVGDRVTITCRASQDISSWLAWYQQKPGKAPKVLIYTASSLQSGVPSRFSGSGSGTDFTLTISSLQPEDFATYYCQQANSHPWTFGQGTKVEIKR"
0.0037 µg/mL,0.00051 µg/mL,0.0146 µg/mL,0.0148 µg/mL,,,"fully human antibody 34-58 (antibody, human IgG1, kappa, V domains shown, Human Ig gamma1 / human kappa constant regions; also called 34-58 (fully human); fully human 34-58 antibody) VH: QVHLVQSGTEVRKPGASVKVSCKVSGYTLNELAIHWVRQAPGKGLEWMGGFDPEHGEIIYAQRFQGRITLPEDTSTDTAYMDLVNLRSEDTAVYFCTTEAAPFDYWGQGSLVIVSS VL: DIQMTQSPSTLSASVGDRVTITCRASQSLSNWLAWYQQKPGKAPKLLIYKASSLESGVPSRFSGSGSGTDFTLTISGLQPDDFATYYCQQYDIYPRTFGQGTKVEIKR"
0.0067 µg/mL,0.0082 µg/mL,0.0218 µg/mL,0.0331 µg/mL,,,"fully human antibody 32-36 (antibody, human IgG1, kappa, V domains shown, Human Ig gamma1 / human kappa constant regions; also called 32-36 (fully human); fully human 32-36 antibody) VH: QVQMVQSGAEVKRPGASVKVSCKVSGYTLNELGIHWVRQAPGKGLEWMGGFDPEHGKIIYAQRFQGRLTMPEDTSTDTAYMELSSLTSEDTAVYYCATVAAPLDYWGQGTLVTVSS VL: not shown"

# Source: patent publication US20140275490A1 (Astellas, published 2014)
